# In US20230340128A1 (Xencor, published 2023):
# Numbering of substitutions follows the chain as printed.
# B1: XENP32751 (bispecific antibody)
# chain 1: QVQLVQSGAEVKKPGASVKVSCKASGYTFTSYWMHWVRQAPGQGLEWMGMIHPNSDNTIYYEKFQGRVTMTVDKSISTAYMELSRLRSDDTAVYYCAIIITPVVPKFDYWGQGTLVTVSSASTKGPSVFPLAPSSKSTSGGTAALGCLVKDYFPEPVTVSWNSGALTSGVHTFPAVLQSSGLYSLSSVVTVPSSSLGTQTYICNVNHKPSDTKVDKKVEPKSCDKTHTCPPCPAPPVAGPSVFLFPPKPKDTLMISRTPEVTCVVVDVKHEDPEVKFNWYVDGVEVHNAKTKPREEEYNSTYRVVSVLTVLHQDWLNGKEYKCKVSNKALPAPIEKTISKAKGQPREPQVYTLPPSREEMTKNQVSLTCDVSGFYPSDIAVEWESDGQPENNYKTTPPVLDSDGSFFLYSKLTVDKSRWEQGDVFSCSVMHEALHNHYTQKSLSLSPGK
# chain 2: QVQLVQSGAEVKKPGASVKVSCKASGYTFTSYWMHWVRQAPGQGLEWMGMIHPNSDNTIYYEKFQGRVTMTVDKSISTAYMELSRLRSDDTAVYYCAIIITPVVPKFDYWGQGTLVTVSSASTKGPSVFPLAPSSKSTSGGTAALGCLVKDYFPEPVTVSWNSGALTSGVHTFPAVLQSSGLYSLSSVVTVPSSSLGTQTYICNVNHKPSNTKVDKKVEPKSCGGGGSGGGGSQAVVTQEPSLTVSPGGTVTLTCGSSTGAVTTSNYANWVQQKPGKSPRGLIGGTNKRAPGVPARFSGSLLGGKAALTISGAQPEDEADYYCALWYSNHWVFGGGTKLTVLGKPGSGKPGSGKPGSGKPGSEVQLVESGGGLVQPGGSLRLSCAASGFTFSTYAMNWVRQAPGKGLEWVGRIRSKANNYATYYADSVKGRFTISRDDSKNTLYLQMNSLRAEDTAVYYCVRHGNFGDSYVSWFAYWGQGTLVTVSSGGGGSGGGGSKTHTCPPCPAPPVAGPSVFLFPPKPKDTLMISRTPEVTCVVVDVKHEDPEVKFNWYVDGVEVHNAKTKPREEQYNSTYRVVSVLTVLHQDWLNGKEYKCKVSNKALPAPIEKTISKAKGQPREPQVYTLPPSREQMTKNQVKLTCLVKGFYPSDIAVEWESNGQPENNYKTTPPVLDSDGSFFLYSKLTVDKSRWQQGNVFSCSVMHEALHNHYTQKSLSLSPGK
# chain 3: DIVMTQSPDSLAVSLGERATINCKASHDVGTYVAWYQQKPGQSPKLLIYWASTRHTGVPDRFTGSGSGTDFTLTISSLQAEDVAVYFCQQYSSYPLTFGAGTKLEIKRTVAAPSVFIFPPSDEQLKSGTASVVCLLNNFYPREAKVQWKVDNALQSGNSQESVTEQDSKDSTYSLSSTLTLSKADYEKHKVYACEVTHQGLSSPVTKSFNRGEC
# B2: XENP32947 (bispecific antibody)
# chain 1: B1 chain 1 with M50W
# chain 2: B1 chain 2 with M50W
# chain 3: B1 chain 3 with Y32S
# B3: XENP39553 (bispecific antibody)
# heavy: B1 chain 1 with M430L, N436S
# scFv-Fc: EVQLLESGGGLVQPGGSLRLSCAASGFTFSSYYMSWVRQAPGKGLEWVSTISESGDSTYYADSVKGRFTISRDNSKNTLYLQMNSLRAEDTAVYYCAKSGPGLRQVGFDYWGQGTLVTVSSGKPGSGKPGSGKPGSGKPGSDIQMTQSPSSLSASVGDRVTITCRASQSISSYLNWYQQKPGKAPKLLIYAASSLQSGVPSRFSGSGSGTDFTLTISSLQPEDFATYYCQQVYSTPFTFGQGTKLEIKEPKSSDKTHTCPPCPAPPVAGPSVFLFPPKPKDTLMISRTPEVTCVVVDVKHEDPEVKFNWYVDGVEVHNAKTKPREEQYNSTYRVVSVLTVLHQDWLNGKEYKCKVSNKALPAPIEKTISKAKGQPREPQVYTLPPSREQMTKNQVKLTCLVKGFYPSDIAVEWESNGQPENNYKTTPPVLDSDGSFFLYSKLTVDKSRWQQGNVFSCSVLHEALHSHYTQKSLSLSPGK
# light: B1 chain 3 with Y32S
# notes: also called MSLN (0.3 nM) x CD28 (37 nM) 1+1 Fab-scFv-Fc
# B4: XENP39569 (bispecific antibody)
# heavy: B1 chain 1 with M50W, M430L, N436S
# scFv-Fc: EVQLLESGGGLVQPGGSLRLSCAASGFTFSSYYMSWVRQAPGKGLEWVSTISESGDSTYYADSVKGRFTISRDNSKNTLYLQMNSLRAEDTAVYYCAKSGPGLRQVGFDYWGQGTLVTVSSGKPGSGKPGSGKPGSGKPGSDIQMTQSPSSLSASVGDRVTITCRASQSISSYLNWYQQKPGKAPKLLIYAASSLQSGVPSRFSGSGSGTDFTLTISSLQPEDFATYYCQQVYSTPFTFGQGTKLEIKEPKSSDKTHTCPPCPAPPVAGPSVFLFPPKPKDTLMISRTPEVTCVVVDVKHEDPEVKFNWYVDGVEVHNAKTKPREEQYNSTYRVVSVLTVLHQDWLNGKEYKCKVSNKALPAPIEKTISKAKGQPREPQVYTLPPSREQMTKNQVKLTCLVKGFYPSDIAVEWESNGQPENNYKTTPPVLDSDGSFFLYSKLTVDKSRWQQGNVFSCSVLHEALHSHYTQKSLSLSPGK
# light: B1 chain 3 with T31Q, Y32S
# notes: also called XENP39569 MSLN (90 nM) x CD28 (37 nM) 1+1
# B5: MESO-C H1_L1 (Fab, V domains shown)
# VH: QVQLVQSGAEVKKPGASVKVSCKASGYTFTSYWMHWVRQAPGQGLEWMGMIHPNSDNTIYYEKFQGRVTMTVDKSISTAYMELSRLRSDDTAVYYCAIIITPVVPKFDYWGQGTLVTVSS
# VL: DIVMTQSPDSLAVSLGERATINCKASHDVGTSVAWYQQKPGQSPKLLIYWASTRHTGVPDRFTGSGSGTDFTLTISSLQAEDVAVYFCQQYSSYPLTFGAGTKLEIK
# Assays:
# human mesothelin (MSLN) [1] = target: T1, human mesothelin (MSLN) (human, UniProt Q13421 296-580, limits assumed); assay: KD quoted in the FIG. 25 legend; Octet (BLI) per FIGS. 20-21
# T1 construct: Antigen of the Octet KD values
# [2] = target: MSLN on OVCAR8 cells (~90K MSLN antigens/cell) (UniProt Q13421 296-598); assay: binding to OVCAR8 cells, MFI APC against mAb concentration
# CD3 = target: T2, CD3; assay: label in the legend box: nominal affinity of the CD3 binding domain; method not stated on the sheet
# T2 chain 1: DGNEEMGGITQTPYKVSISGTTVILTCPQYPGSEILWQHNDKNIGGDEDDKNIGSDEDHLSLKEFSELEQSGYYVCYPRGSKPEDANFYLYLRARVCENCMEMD
# T2 chain 2: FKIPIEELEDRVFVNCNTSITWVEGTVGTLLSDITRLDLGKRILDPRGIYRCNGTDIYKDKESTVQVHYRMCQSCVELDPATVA
# human CD28 [3] = target: T3, human CD28 (human, UniProt P10747 19-152, limits assumed); assay: KD of its CD28 binding domain as quoted in the text
# T3 construct: also called Cluster of Differentiation 28; Tp44
# human mesothelin (MSLN) [4] = target: T1, human mesothelin (MSLN); assay: KD of its MSLN binding domain as quoted in the text
# human CD28 [5] = target: T3, human CD28; assay: method not stated; Monovalent CD28 KD, table headed 1A7[CD28] H1.14_L1.71 (aka 37 nM)
# human CD28 [6] = target: T3, human CD28; assay: label in the legend box: nominal affinity of the CD28 binding domain (paragraph 422 calls such label values KD); method not stated on the sheet
# human mesothelin (MSLN) [7] = target: T1, human mesothelin (MSLN); assay: label in the legend box: nominal affinity of the MSLN binding domain (paragraph 422 calls such label values KD); method not stated on the sheet
# human mesothelin (MSLN) [8] = target: T1, human mesothelin (MSLN); assay: KD quoted in the text; Octet (BLI) per FIGS. 20-21
binder,measurement,setting,value
B1,Kd,human mesothelin (MSLN) [1],~12.8 nM
same,EC50 (read off the curve),[2],~0.05 µg/mL
B2,Kd,human mesothelin (MSLN) [1],9.2 nM
same,Kd,CD3,30 nM
B3,Kd,human CD28 [3],37 nM
same,Kd,human mesothelin (MSLN) [4],0.3 nM
same,Kd,human CD28 [5],60 nM
B4,Kd,human CD28 [6],37 nM
same,Kd,human mesothelin (MSLN) [7],90 nM
B5,Kd,human mesothelin (MSLN) [8],0.3 nM
